Measurements published in patent publication US20250122306A1 (SUTRO BIOPHARMA, published 2025).

T1: cynomolgus tissue factor (cynomolgus TF, Sino Bio #90885-C08H) (cynomolgus monkey, UniProt P13726 33-251 (human entry))
T1 construct: bought recombinant antigen; also called cyno TF
T1 chain: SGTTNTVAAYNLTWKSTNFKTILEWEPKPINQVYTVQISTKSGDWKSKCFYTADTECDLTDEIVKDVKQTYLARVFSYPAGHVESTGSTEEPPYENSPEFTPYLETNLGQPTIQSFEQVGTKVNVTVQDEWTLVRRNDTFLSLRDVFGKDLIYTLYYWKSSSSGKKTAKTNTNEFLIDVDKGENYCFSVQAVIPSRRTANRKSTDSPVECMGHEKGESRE

B1: Conjugate 6: 2900-A02 Y180/F241/F404/k42-LP1 (antibody, human IgG1, kappa)
heavy: MEVQLVESGGGLVQPGGSLRLSCAASGFTISGYIIHWVRQAPGKGLEWVGYIDPSNGYTYYADSVKGRFTISADTSKNTAYLQMNSLRAEDTAVYYCARDDQSLSSPFDYWGQGTLVTVSSASTKGPSVFPLAPSSKSTSGGTAALGCLVKDYFPEPVTVSWNSGALTSGVHTFPAVLQSSGLSLSSVVTVPSSSLGTQTYICNVNHKPSNTKVDKKVEPKSCDKTHTCPPCPAPELLGGPSVLFPPKPKDTLMISRTPEVTCVVVDVSHEDPEVKFNWYVDGVEVHNAKTKPREEQYNSTYRVVSVLTVLHQDWLNGKEYKCKVSNKALPAPIEKTISKAKGQPREPQVYTLPPSREEMTKNQVSLTCLVKGFYPSDIAVEWESNGQPENNYKTTPPVLDSDGSFLYSKLTVDKSRWQQGNVFSCSVMHEALHNHYTQKSLSLSPGK
light: MDIQMTQSPSSLSASVGDRVTITCRASQDVNTAVAWYQQKPGAPKLLIYSASFLYSGVPSRFSGSRSGTDFTLTISSLQPEDFATYYCQQHYTTPPTFGQGTKVEIKRTVAAPSVFIFPPSDEQLKSGTASVVCLLNNFYPREAKVQWKVDNALQSGNSQESVTEQDSKDSTYSLSSTLTLSKADYEKHKVYACEVTHQGLSSPVTKSFNRGEC
modifications: pAMF at K42 linked to LP1; pAMF at Y180, F241 and F404 (EU), each linked to LP1 (DBCO-Valcit-pAB-hemiasterlin)
B2: SRP2900-C01 (antibody, IgG1, V domains shown)
VH: EVQLVESGGGLVQPGGSLRLSCAASGFTIGSYWIHWVRQAPGKGLEWVGYIDPSNGYTYYADSVKGRFTISADTSKNTAYLQMNSLRAEDTAVYYCARADYYYVDEYWDYWGQGTLVTVSS
VL: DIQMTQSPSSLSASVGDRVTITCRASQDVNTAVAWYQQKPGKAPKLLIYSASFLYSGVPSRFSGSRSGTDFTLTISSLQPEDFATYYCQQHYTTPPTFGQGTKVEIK
B3: Conjugate 1: 2900-A02 Y180/F404-LP1 (antibody, human IgG1, kappa)
heavy: MEVQLVESGGGLVQPGGSLRLSCAASGFTISGYIIHWVRQAPGKGLEWVGYIDPSNGYTYYADSVKGRFTISADTSKNTAYLQMNSLRAEDTAVYYCARDDQSLSSPFDYWGQGTLVTVSSASTKGPSVFPLAPSSKSTSGGTAALGCLVKDYFPEPVTVSWNSGALTSGVHTFPAVLQSSGLSLSSVVTVPSSSLGTQTYICNVNHKPSNTKVDKKVEPKSCDKTHTCPPCPAPELLGGPSVFLFPPKPKDTLMISRTPEVTCVVVDVSHEDPEVKFNWYVDGVEVHNAKTKPREEQYNSTYRVVSVLTVLHQDWLNGKEYKCKVSNKALPAPIEKTISKAKGQPREPQVYTLPPSREEMTKNQVSLTCLVKGFYPSDIAVEWESNGQPENNYKTTPPVLDSDGSFLYSKLTVDKSRWQQGNVFSCSVMHEALHNHYTQKSLSLSPGK
light: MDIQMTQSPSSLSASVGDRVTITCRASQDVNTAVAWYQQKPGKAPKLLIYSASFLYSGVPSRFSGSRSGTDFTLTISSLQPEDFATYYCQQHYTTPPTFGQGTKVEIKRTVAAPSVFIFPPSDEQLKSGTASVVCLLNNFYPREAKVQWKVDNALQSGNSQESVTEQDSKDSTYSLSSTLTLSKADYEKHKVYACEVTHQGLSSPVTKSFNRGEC
modifications: pAMF at Y180 and F404 (EU), each linked to LP1 (DBCO-Valcit-pAB-hemiasterlin)
B4: Conjugate 3: 2900-A02 Y180/F404/k42-LP1 (antibody, human IgG1, kappa)
heavy: MEVQLVESGGGLVQPGGSLRLSCAASGFTISGYIIHWVRQAPGKGLEWVGYIDPSNGYTYYADSVKGRFTISADTSKNTAYLQMNSLRAEDTAVYYCARDDQSLSSPFDYWGQGTLVTVSSASTKGPSVFPLAPSSKSTSGGTAALGCLVKDYFPEPVTVSWNSGALTSGVHTFPAVLQSSGLSLSSVVTVPSSSLGTQTYICNVNHKPSNTKVDKKVEPKSCDKTHTCPPCPAPELLGGPSVFLFPPKPKDTLMISRTPEVTCVVVDVSHEDPEVKFNWYVDGVEVHNAKTKPREEQYNSTYRVVSVLTVLHQDWLNGKEYKCKVSNKALPAPIEKTISKAKGQPREPQVYTLPPSREEMTKNQVSLTCLVKGFYPSDIAVEWESNGQPENNYKTTPPVLDSDGSFLYSKLTVDKSRWQQGNVFSCSVMHEALHNHYTQKSLSLSPGK
light: MDIQMTQSPSSLSASVGDRVTITCRASQDVNTAVAWYQQKPGAPKLLIYSASFLYSGVPSRFSGSRSGTDFTLTISSLQPEDFATYYCQQHYTTPPTFGQGTKVEIKRTVAAPSVFIFPPSDEQLKSGTASVVCLLNNFYPREAKVQWKVDNALQSGNSQESVTEQDSKDSTYSLSSTLTLSKADYEKHKVYACEVTHQGLSSPVTKSFNRGEC
modifications: pAMF at K42 linked to LP1; pAMF at Y180 and F404 (EU), each linked to LP1 (DBCO-Valcit-pAB-hemiasterlin)
B5: Conjugate 5: 2900-A02 Y180/F404/k42/E161-LP1 (antibody, human IgG1, kappa)
heavy: MEVQLVESGGGLVQPGGSLRLSCAASGFTISGYIIHWVRQAPGKGLEWVGYIDPSNGYTYYADSVKGRFTISADTSKNTAYLQMNSLRAEDTAVYYCARDDQSLSSPFDYWGQGTLVTVSSASTKGPSVFPLAPSSKSTSGGTAALGCLVKDYFPEPVTVSWNSGALTSGVHTFPAVLQSSGLSLSSVVTVPSSSLGTQTYICNVNHKPSNTKVDKKVEPKSCDKTHTCPPCPAPELLGGPSVFLFPPKPKDTLMISRTPEVTCVVVDVSHEDPEVKFNWYVDGVEVHNAKTKPREEQYNSTYRVVSVLTVLHQDWLNGKEYKCKVSNKALPAPIEKTISKAKGQPREPQVYTLPPSREEMTKNQVSLTCLVKGFYPSDIAVEWESNGQPENNYKTTPPVLDSDGSFLYSKLTVDKSRWQQGNVFSCSVMHEALHNHYTQKSLSLSPGK
light: MDIQMTQSPSSLSASVGDRVTITCRASQDVNTAVAWYQQKPGAPKLLIYSASFLYSGVPSRFSGSRSGTDFTLTISSLQPEDFATYYCQQHYTTPPTFGQGTKVEIKRTVAAPSVFIFPPSDEQLKSGTASVVCLLNNFYPREAKVQWKVDNALQSGNSQSVTEQDSKDSTYSLSSTLTLSKADYEKHKVYACEVTHQGLSSPVTKSFNRGEC
modifications: pAMF at K42 and E161, each linked to LP1; pAMF at Y180 and F404 (EU), each linked to LP1 (DBCO-Valcit-pAB-hemiasterlin)
B6: SRP2900-A02 (antibody, IgG1, V domains shown)
VH: MEVQLVESGGGLVQPGGSLRLSCAASGFTISGYIIHWVRQAPGKGLEWVGYIDPSNGYTYYADSVKGRFTISADTSKNTAYLQMNSLRAEDTAVYYCARDDQSLSSPFDYWGQGTLVTVSS
VL: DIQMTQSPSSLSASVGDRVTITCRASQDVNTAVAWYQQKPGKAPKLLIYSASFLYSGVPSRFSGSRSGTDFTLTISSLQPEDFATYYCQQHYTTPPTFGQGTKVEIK
B7: SRP2900-E07 (antibody, IgG1, V domains shown)
VH: EVQLVESGGGLVQPGGSLRLSCAASGFTISQYWIHWVRQAPGKGLEWVGYIDPYNGYTYYADSVKGRFTISADTSKNTAYLQMNSLRAEDTAVYYCARDYGSLRVSLDYWGQGTLVTVSS
VL: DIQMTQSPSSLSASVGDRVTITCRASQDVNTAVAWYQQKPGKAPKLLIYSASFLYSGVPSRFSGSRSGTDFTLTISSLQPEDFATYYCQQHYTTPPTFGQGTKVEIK
B8: SRP2900-C11 (antibody, IgG1, V domains shown)
VH: EVQLVESGGGLVQPGGSLRLSCAASGFTISQYWIHWVRQAPGKGLEWVGYIDPYNGYTYYADSVKGRFTISADTSKNTAYLQMNSLRAEDTAVYYCARDYGSWRIRLDYWGQGTLVTVSS
VL: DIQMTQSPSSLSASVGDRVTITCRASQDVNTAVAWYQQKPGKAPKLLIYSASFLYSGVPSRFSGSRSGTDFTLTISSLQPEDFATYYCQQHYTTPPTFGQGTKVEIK
B9: SRP2900-F06 (antibody, IgG1, V domains shown)
VH: EVQLVESGGGLVQPGGSLRLSCAASGFTISIYTIHWVRQAPGKGLEWVGYIDPSNGYTYYADSVKGRLTISADTSKNTAYLQMNSLRAEDTAVYYCARDPQSISSPFDYWGQGTLVTVSS
VL: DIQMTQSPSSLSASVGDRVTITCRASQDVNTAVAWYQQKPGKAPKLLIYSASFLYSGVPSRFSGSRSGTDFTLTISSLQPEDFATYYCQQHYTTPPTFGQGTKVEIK
B10: SRP2900-F02 (antibody, IgG1, V domains shown)
VH: EVQLVESGGGLVQPGGSLRLACAASGFTIGVYIIHWVRQAPGKGLEWVGYIDPSNGYTYYADSVKGRFTISADTSKNTAYLQMNSLRAEDTAVYYCARDDQSVSSPFDYWGQGTLVTVSS
VL: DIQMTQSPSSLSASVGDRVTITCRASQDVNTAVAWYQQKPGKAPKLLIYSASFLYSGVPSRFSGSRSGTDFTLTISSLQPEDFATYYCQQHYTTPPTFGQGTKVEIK
B11: SRP2900-E06 (antibody, IgG1, V domains shown)
VH: EVQLVESGGGLVQPGGSLRLSCAASGFTISGYIIHWVRQAPGKGLEWVGYIDPSNGYTYHADSVKGRFTISADTSKNTAYLQMNSLRAEDTAVYYCARDDQSVSSPFDYWGQGTLVTVSS
VL: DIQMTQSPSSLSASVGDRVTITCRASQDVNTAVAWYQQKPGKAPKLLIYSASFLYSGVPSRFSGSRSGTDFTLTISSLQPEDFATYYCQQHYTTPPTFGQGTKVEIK
B12: SRP2900-E02 (antibody, IgG1, V domains shown)
VH: EVQLVESGGGLVQPGGSLRLSCAASGFTISDYVIHWVRQAPGKGLEWVGYIDPSNGYTYYADPVKGRFTISADTSKNTAYLQMNSLRAEDTAVYYCARDPQSFYIAFDYWGQGTLVTVSS
VL: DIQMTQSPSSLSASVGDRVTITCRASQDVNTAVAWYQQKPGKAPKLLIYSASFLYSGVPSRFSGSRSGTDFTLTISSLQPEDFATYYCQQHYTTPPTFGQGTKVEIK

Columns and labels:
[1] = biological target: human tissue factor on cells (human, UniProt P13726 33-295); test: cell-based or functional assay
[2] = biological target: tissue factor reagent of the Tissue Factor Activity Assay Kit (Abcam #ab108906) (UniProt P13726 33-295, limits assumed); test: cell-based or functional assay
[3] = biological target: T1, cynomolgus tissue factor (cynomolgus …); test: Biacore SPR, single-point off-rate (100 nM antigen), antibody captured on anti-Fc
Description: (§1) Anti-Fc polyclonal antibodies were immobilized onto a CM4 chip (Cytiva #BR100534) using amine coupling chemistry (Human Antibody Capture Kit, Cytiva #BR100839). The immobilization steps were carried out at a flow rate of 25 μL/min in 1×HBS-EP+buffer (Cytiva #BR100669). The sensor surfaces were activated for 7 min with a mixture of N-hydroxysuccinimide (NHS, 0.05 M) and 1-ethyl-3-(3-dimethylaminopropyl)-carbodiimide (EDC, 0.2 M). The anti-Fc polyclonal antibodies were injected over all 4 flow cells at a concentration of 25 μg/mL in 10 mM sodium acetate, pH 4.5, for 7 min. Ethanolamine (1 M, pH 8.5) was injected for 7 min to block any remaining activated groups.
(§2) Off-rate and kinetic binding experiments were performed at 25° C. using 1×HBS-EP+buffer. Antibodies were injected over the anti-Fc surface at a concentration of 3 μg/mL for 12 seconds at a flow rate of 10 μL/min on flow cells 2, 3 and 4, followed by a buffer wash for 30 seconds at the same flow rate. Single point off-rate analysis was carried out using an antigen concentration of 100 nM. […] After capturing ligand (antibody) on the anti-Fc surface, the analyte (human TF, Lake Pharma; cynomolgus TF, Sino Bio #90885-C08H; mouse TF, R&D Systems #3178-PA) was bound for 180 seconds, followed by a 420 second dissociation phase at a flow rate of […]. Between each ligand capture and analyte binding cycle, regeneration was carried out using 2 injections of 10 mM glycine pH 2.0 for 30 seconds at 30 μL/min, followed by a 30 second buffer wash step.

[4] = biological target: T2, human tissue factor (human TF, Lake Pharma) (human, UniProt P13726 33-251, limits assumed); test: as above
T2 construct: bought recombinant antigen; also called CD142
Description: as §1, §2

Binder | cell killing EC50, HCC1954 (TF+++) [1] [nM] | cell killing EC50, NCI-H292 (TF++++) [1] [nM] | cell killing EC50, NCI-H1975 (TF++) [1] [nM] | cell killing Span, HCC1954 (TF+++) [1] [%] | cell killing Span, NCI-H292 (TF++++) [1] [%] | cell killing Span, NCI-H1975 (TF++) [1] [%] | FX conversion (% inhibition), 1000 nM antibody [2] [%] | koff [3] [s⁻¹] | koff [4] [s⁻¹] | further results
B1 | 0.085 | 0.044 | ~5 | 93 | 86 | 71 | – | – | – | cell killing EC50, HCC1954, with 0.5 uM unconjugated mAb 40 [1]: > 100 nM; cell killing EC50, NCI-H292, with 0.5 uM unconjugated mAb 40 [1]: > 100 nM; cell killing EC50, NCI-H1975, with 0.5 uM unconjugated mAb 40 [1]: > 100 nM
B2 | – | – | – | – | – | – | 16.4 | 0.00118 | 0.00183 | –
B3 | 0.064 | 0.055 | ~25 | 95 | 85 | 62 | – | – | – | cell killing EC50, HCC1954, with 0.5 uM unconjugated mAb 36 [1]: > 100 nM; cell killing EC50, NCI-H1975, with 0.5 uM unconjugated mAb 36 [1]: > 100 nM
B4 | 0.073 | 0.048 | ~7 | 93 | 82 | 68 | – | – | – | cell killing EC50, HCC1954, with 0.5 uM unconjugated mAb 39 [1]: > 100 nM; cell killing EC50, NCI-H292, with 0.5 uM unconjugated mAb 39 [1]: > 100 nM; cell killing EC50, NCI-H1975, with 0.5 uM unconjugated mAb 39 [1]: > 100 nM
B5 | 0.08 | 0.045 | ~4.4 | 91 | 87 | 72 | – | – | – | cell killing EC50, HCC1954, with 0.5 uM unconjugated mAb 38 [1]: > 100 nM; cell killing EC50, NCI-H292, with 0.5 uM unconjugated mAb 38 [1]: > 100 nM; cell killing EC50, NCI-H1975, with 0.5 uM unconjugated mAb 38 [1]: > 100 nM
B6 | – | – | – | – | – | – | 0.21 | 0.000761 | 0.00116 | –
B7 | – | – | – | – | – | – | 15.6 | 0.00113 | 0.000511 | –
B8 | – | – | – | – | – | – | 12.4 | 0.00257 | 0.000842 | –
B9 | – | – | – | – | – | – | 1.72 | 0.00184 | 0.00423 | –
B10 | – | – | – | – | – | – | 0.23 | 0.000696 | 0.00274 | –
B11 | – | – | – | – | – | – | 18.7 | 0.000689 | 0.000978 | –
B12 | – | – | – | – | – | – | 17.7 | 0.00182 | 0.000528 | –
